According to the supplement of paper PMC10567573:
± gives the standard deviation.

Assay: protein stability index of a GFP-peptide fusion (GPS, HEK-293T) (PSI 1-6); higher = more stable
[1] = treatment: DMSO, c terminus: a fixed tail appended
[2] = treatment: MLN4924 1 uM, 8 h, c terminus: a fixed tail appended
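Further: 24-mer peptide tiles fused after GFP, lentivirally expressed, FACS-sorted into six equal bins by GFP/DsRed ratio, decoded by Illumina sequencing, PSI is the read-weighted mean bin number.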

Sequence GGIQEGAVTPAGVVNKYQINGLQA [DHCR7] has a protein stability index [1] of 3.93 ± 0.27 and a protein stability index [2] of 4.17 ± 0.22.

Work on SVIEEDLEEFQLALKHYVESASSQ [NECAB1] yielded a protein stability index [1] of 3.78 ± 0.58 and a protein stability index [2] of 3.84 ± 0.077.

PVRDECEERNRFTETREEDVTDEH [FAM9B] gave a protein stability index [1] of 5.44 ± 0.21 and a protein stability index [2] of 5.66 ± 0.24.

For PSGEMVKSTTSLTSSSTSGSSDKV [MLH1], the protein stability index [1] was 5.47 ± 0.39 and the protein stability index [2] was 5.59 ± 0.17.

Sequence ARSGHRCVADNTNLYVFGGYNPDY [KLHDC10] has a protein stability index [1] of 2.23 ± 0.22 and a protein stability index [2] of 2.3 ± 0.36.

Sequence LGPLLSEPLVLYNQNLSNRPSFNR [MYOZ1] has a protein stability index [1] of 2.62 ± 0.13 and a protein stability index [2] of 2.95 ± 0.49.

PEGKRVPKRLRCWEEEEDHEKERP [FANCE] showed a protein stability index [1] of 5.21 ± 0.25 and a protein stability index [2] of 5.26 ± 0.27.

AGGGGFGGGSLSGGGGSRSISASS [KRT15] showed a protein stability index [1] of 3.89 ± 0.3 and a protein stability index [2] of 4 ± 0.21.

With FLDLERPPTTPQNEEIRAVGRLKR [MFF] the protein stability index [2] was 4.07 ± 0.3.

ECGKTFIYNSHLVVHQRVHSGEKP [ZNF232] gave a protein stability index [1] of 2.96 ± 0.37 and a protein stability index [2] of 2.9 ± 0.49.

Work on RTILLSVISLLNEPNTFSPANVDA [CDC34] yielded a protein stability index [1] of 2.77 ± 0.41 and a protein stability index [2] of 2.66 ± 0.54.

For GTDQVCVLEWGAEGVAGKSGLEKE [FCHSD1], the protein stability index [1] was 5.01 ± 0.25 and the protein stability index [2] was 5.07 ± 0.15.

Sequence PFWEVLVRSTETVERDNMEEDNVE [HDAC6] has a protein stability index [1] of 5.27 ± 0.086 and a protein stability index [2] of 5.27 ± 0.13.

With SPTSRPPWAVDPAFAERYAPDKTS [PDLIM7] the protein stability index [1] was 4.63 ± 0.21 and the protein stability index [2] was 4.7 ± 0.31.

Work on NILVTSGGTVKLADFGLARIYSYQ [CDK4] yielded a protein stability index [1] of 2.45 ± 0.81 and a protein stability index [2] of 2.13 ± 0.37.

In the case of ENRELYIKTTLRELLVYIVFLVDI [PKD2L1], the protein stability index [1] is reported as 2.58 ± 0.87 and the protein stability index [2] is reported as 2.57 ± 0.82.

With SISLMYGGSKRKSSFFSSPPYFED [SLA] the protein stability index [1] was 2.37 ± 0.38 and the protein stability index [2] was 2.59 ± 0.2.

For SMEKDATLNVDRKEKCVSLPDCCH [DLC1], the protein stability index [1] was 4.81 ± 0.2 and the protein stability index [2] was 4.92 ± 0.17.

With AVDFTQEEWGQLDPTQRILYRDVM [ZNF8] the protein stability index [1] was 3.75 ± 0.18 and the protein stability index [2] was 3.88 ± 0.35.

For RKLFGQESGPSAEKYSVATQLFIG [FUNDC2], the protein stability index [1] was 2.61 ± 0.18 and the protein stability index [2] was 2.47 ± 0.26.

Work on VSLRYSGATAASETLSGHGPLAQP [ADAMTS4] yielded a protein stability index [1] of 3.08 ± 0.15 and a protein stability index [2] of 3.21 ± 0.066.

In the case of IRPVAGYLSPRDFLSGLAFRVFHC [TPH1], the protein stability index [1] is reported as 2.1 ± 0.13 and the protein stability index [2] is reported as 2.12 ± 0.1.

SLSRNNSFRRNVGRVLLANSTQAD [FBXO34] showed a protein stability index [1] of 3.15 ± 0.24 and a protein stability index [2] of 3.21 ± 0.3.

With RWGYVAMKFAQVFGCFFYVYYIFE [SOAT1] the protein stability index [1] was 3.17 ± 0.22 and the protein stability index [2] was 3.18 ± 0.39.

NTRNYEGQTPLAVSISISGSSRPC [ASB7] gave a protein stability index [1] of 3.23 ± 0.2 and a protein stability index [2] of 3.5 ± 0.27.

With HGIRPPQLEQPEKMPVLKAEASHY [RHOBTB3] the protein stability index [1] was 4.41 ± 0.11 and the protein stability index [2] was 4.41 ± 0.2.

Sequence LINTIRVVCASYEDYGHWLLCLRA [PLEKHN1] has a protein stability index [1] of 2.76 ± 0.89 and a protein stability index [2] of 2.43 ± 0.41.

For FLGSSFSPVRCGGPGDASPRGCGA [WEE1], the protein stability index [1] was 2.27 ± 0.34 and the protein stability index [2] was 2.61 ± 0.48.

In the case of ARLRHQELFRLRGIKAQVALRLAE [NOP53], the protein stability index [1] is reported as 2.22 ± 0.15 and the protein stability index [2] is reported as 2.22 ± 0.31.

With ENSGILQGKLIKRQRLAKNDRGDH [EFHC1] the protein stability index [1] was 3.85 ± 0.32 and the protein stability index [2] was 4.37 ± 0.11.

In the case of DQEIKFFRCLFEAEITQIQSHISD [KRT71], the protein stability index [1] is reported as 2.25 ± 0.36 and the protein stability index [2] is reported as 2.34 ± 0.77.

With PDEEPMHYGNIMYDRRVIRGNTYA [RSPH3] the protein stability index [1] was 3.5 ± 0.27 and the protein stability index [2] was 3.41 ± 0.33.

QAAFTQQGMEGIKVFLHERELWLK [TBX5] gave a protein stability index [1] of 2.86 ± 0.37 and a protein stability index [2] of 2.92 ± 0.4.

For EEMAVVPQGLFRGGKSGELEQEEE [CHGA], the protein stability index [1] was 5.63 ± 0.27 and the protein stability index [2] was 5.62 ± 0.18.

RHGGLSLVQTTDFFYPLVEDPYMM [SEPHS2] gave a protein stability index [1] of 2.3 ± 0.25 and a protein stability index [2] of 2.24 ± 0.28.

LGGFSHWGRLTSYSGGGYYLDLPG [PKD2L1] gave a protein stability index [1] of 2.47 ± 0.19 and a protein stability index [2] of 2.74 ± 0.25.

In the case of MDTQFTIRARELQNIYKCIMLKNI [IQUB], the protein stability index [1] is reported as 2.27 ± 0.24 and the protein stability index [2] is reported as 2.37 ± 0.3.

TKKKGVKRPARLHTKPSQAPAVEV [NOP53] showed a protein stability index [1] of 4.36 ± 0.2 and a protein stability index [2] of 4.411 ± 0.021.

In the case of RSSHLVIHERTHERERLYPFSECG [ZNF263], the protein stability index [1] is reported as 2.93 ± 0.21 and the protein stability index [2] is reported as 3.25 ± 0.3.

With LHLPIMGVVMKVRIPTCHDKPGTT [DENND6A] the protein stability index [1] was 2.24 ± 0.31 and the protein stability index [2] was 2.25 ± 0.19.

Work on INSTAPFEEQENYFLLCDVLPEDR [ZNF277] yielded a protein stability index [1] of 3.92 ± 0.36 and a protein stability index [2] of 4.12 ± 0.18.

For FCGAPPVTPIIVLSIINFFERLCL [PHTF1], the protein stability index [1] was 2.87 ± 0.47 and the protein stability index [2] was 2.5 ± 0.46.

Sequence RYCQCNPDDSTSEDGIHTLTCALM [PSD2] has a protein stability index [1] of 3.96 ± 0.32 and a protein stability index [2] of 4.09 ± 0.18.

In the case of ADYFATFVQREEQLQFLIRYHRFI [CDS1], the protein stability index [1] is reported as 2.2 ± 0.54 and the protein stability index [2] is reported as 2.37 ± 0.27.

Work on YSFISLFIYMVLSLFIALITGAYD [MCOLN1] yielded a protein stability index [1] of 3.14 ± 0.48 and a protein stability index [2] of 3.22 ± 0.45.

TRSHLWEAAQVVPDGLGLDEAREE [TRIB3] gave a protein stability index [1] of 5.13 ± 0.24 and a protein stability index [2] of 5.13 ± 0.28.

In the case of TRTGPSAWETKKILAVSFAPLIQP [PCMTD2], the protein stability index [1] is reported as 2.14 ± 0.29 and the protein stability index [2] is reported as 2.31 ± 0.31.

In the case of EQPITDFCSVIRINSTAPFEEQEN [ZNF277], the protein stability index [1] is reported as 4.4 ± 0.23 and the protein stability index [2] is reported as 4.46 ± 0.3.

Sequence MSLRLQSSSASYGGGFGGGSCQLG [KRT13] has a protein stability index [1] of 2.54 ± 0.11 and a protein stability index [2] of 2.49 ± 0.11.

With SSAYVKTSEKLGEWNEKVTQSDLY [TPD52L2] the protein stability index [1] was 4.02 ± 0.19 and the protein stability index [2] was 3.98 ± 0.17.

KENEMMKSHVMDQAINNAINYLGA [IKZF1] gave a protein stability index [1] of 3.24 ± 0.089 and a protein stability index [2] of 2.87 ± 0.3.

VRSGIVEYLSLVKGGQDVKKKVHL [PRIM1] showed a protein stability index [1] of 2.43 ± 0.26 and a protein stability index [2] of 2.28 ± 0.44.

LQLLLGCKARMERDGYGMTPLLAA [FEM1A] gave a protein stability index [1] of 2.38 ± 0.5 and a protein stability index [2] of 2.24 ± 0.29.

Work on HPYSTTFQESASTPETRAKFTQDN [TEKT4] yielded a protein stability index [1] of 4.54 ± 0.13 and a protein stability index [2] of 4.67 ± 0.31.

In the case of LSETADPFFVLNSDVICDFPFQAM [GMPPB], the protein stability index [1] is reported as 2.44 ± 0.26 and the protein stability index [2] is reported as 2.6 ± 0.35.

Work on AERYKLERLAEAEKSQLIMQAEAE [FLOT1] yielded a protein stability index [1] of 5.29 ± 0.25 and a protein stability index [2] of 5 ± 0.28.

Sequence RGRHEQSPTSRPRKVSSLPPRSC [C22orf15] has a protein stability index (treatment: DMSO, c terminus: native) of 3.06 ± 0.81 and a protein stability index (treatment: MLN4924 1 uM, 8 h, c terminus: native) of 3.5 ± 0.85.

In the case of PNRQLWIELAPLSMPRINHGVLSA [GAN], the protein stability index [1] is reported as 2.17 ± 0.47 and the protein stability index [2] is reported as 2.19 ± 0.13.

PGKKKIRWDPVRRRFIQSCPIIRI [KLHDC10] showed a protein stability index [1] of 2.01 ± 0.29 and a protein stability index [2] of 2.1 ± 0.12.

Sequence NATWLVNSAAHLFGYRPYDKNISP [SCD] has a protein stability index [1] of 2.4 ± 0.19 and a protein stability index [2] of 2.34 ± 0.41.

With EEAAMQKCLVTEAQTLLRLSGVQR [RSAD1] the protein stability index [1] was 3.51 ± 0.15 and the protein stability index [2] was 3.52 ± 0.35.

FLVANFSQIETLTSVFQKKLCTAH [MATN2] showed a protein stability index [1] of 2.6 ± 0.56 and a protein stability index [2] of 2.52 ± 0.49.

For HFQDNLHSVNRDLNELERLSNLVG [MED27], the protein stability index [1] was 3.47 ± 0.19 and the protein stability index [2] was 3.52 ± 0.36.

Sequence FGAVNLSSPSNMLPVRPQTNALIG [CLINT1] has a protein stability index [1] of 3.23 ± 0.12 and a protein stability index [2] of 3.26 ± 0.41.

Work on EIRRKEKEAVLAMEKKSKPKNSVW [RIT1] yielded a protein stability index [1] of 4.12 ± 0.17 and a protein stability index [2] of 4.29 ± 0.38.
